Source: patent US20120034160A1 (AbbVie / Abbott, published 2012)
Numbering of substitutions follows the chain as printed.

T1: Recombinant Human IL-17 (human, UniProt Q16552 20-155, limits assumed)
T1 construct: bought reagent
T1 sequence (looked up): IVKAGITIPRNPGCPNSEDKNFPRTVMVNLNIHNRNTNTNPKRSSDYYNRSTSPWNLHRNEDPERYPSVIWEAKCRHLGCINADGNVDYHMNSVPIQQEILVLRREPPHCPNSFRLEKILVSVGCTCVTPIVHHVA

B1: DVD1590 (bispecific antibody, human IgG1, kappa)
heavy: not shown
light: DIQMTQSPSSLSASVGDRVTITCRASSGIISYIDWFQQKPGKAPKRLIYATFDLASGVPSRFSGSGSGTDYTLTISSLQPEDFATYYCRQVGSYPETFGQGTKLEIKRTVAAPSVFIFPPDIQMTQSPSSLSASVGDRVTITCRASGNIHNYLTWYQQTPGKAPKLLIYNAKTLADGVPSRFSGSGSGTDYTFTISSLQPEDIATYYCQHFWSIPYTFGQGTKLQITRTVAAPSVFIFPPSDEQLKSGTASVVCLLNNFYPREAKVQWKVDNALQSGNSQESVTEQDSKDSTYSLSSTLTLSKADYEKHKVYACEVTHQGLSSPVTKSFNRGEC
notes: V1 wt hIgG1, V2 kappa; also called DVD1590H; DVD1590L
B2: DVD1592 (bispecific antibody, human IgG1, kappa)
heavy: not shown
light: B1 light
notes: V1 wt hIgG1, V2 kappa; also called DVD1592H; DVD1592L
B3: DVD1285 (bispecific antibody, human IgG1, kappa)
heavy: not shown
light: EIVLTQSPDFQSVTPKEKVTITCRASQNIGSELHWYQQKPDQSPKLLIKYASHSISGVPSRFSGSGSGTDFTLTINGLEAEDAATYYCHQSDTLPHTFGQGTKVDIKRTVAAPDIQMTQSPSSLSASVGDRVTITCRASGNIHNYLTWYQQTPGKAPKLLIYNAKTLADGVPSRFSGSGSGTDYTFTISSLQPEDIATYYCQHFWSIPYTFGQGTKLQITRTVAAPSVFIFPPSDEQLKSGTASVVCLLNNFYPREAKVQWKVDNALQSGNSQESVTEQDSKDSTYSLSSTLTLSKADYEKHKVYACEVTHQGLSSPVTKSFNRGEC
notes: V1 wt hIgG1, V2 kappa; also called DVD1285H; DVD1285L
B4: DVD1594 (bispecific antibody, human IgG1, kappa)
heavy: not shown
light: DIQMTQSPSSLSASVGDRVTITCRASSGIISYIDWFQQKPGKAPKRLIYATFDLASGVPSRFSGSGSGTDYTLTISSLQPEDFATYYCRQVGSYPETFGQGTKLEIKRTVAAPSVFIFPPDTQVTQSPSSLSASVGDRVTITCITSTDIDVDMNWYQQKPGKPPKLLISQGNTLRPGVPSRFSSSGSGTDFTFTISSLQPEDFATYYCLQSDNLPLTFGQGTKLEIKRTVAAPSVFIFPPSDEQLKSGTASVVCLLNNFYPREAKVQWKVDNALQSGNSQESVTEQDSKDSTYSLSSTLTLSKADYEKHKVYACEVTHQGLSSPVTKSFNRGEC
notes: DVD-Ig, outer AB273, inner AB270, linker set 2; V1 wt hIgG1, V2 kappa; also called DVD1594H; DVD1594L
B5: DVD1598 (bispecific antibody, human IgG1, kappa)
heavy: not shown
light: B4 light with D121E, Q123T
notes: DVD-Ig, outer AB273, inner AB272, linker set 2; V1 wt hIgG1, V2 kappa; also called DVD1598H; DVD1598L
B6: DVD1289 (bispecific antibody, human IgG1, kappa)
heavy: not shown
light: EIVLTQSPDFQSVTPKEKVTITCRASQNIGSELHWYQQKPDQSPKLLIKYASHSISGVPSRFSGSGSGTDFTLTINGLEAEDAATYYCHQSDTLPHTFGQGTKVDIKRTVAAPDTVVTQSPAFLSVTPGEKVTITCITSTDIDVDMNWYQQKPDQPPKLLISQGNTLRPGVPSRFSSSGSGTDFTFTISSLEAEDAATYYCLQSDNLPLTFGQGTKLEIKRTVAAPSVFIFPPSDEQLKSGTASVVCLLNNFYPREAKVQWKVDNALQSGNSQESVTEQDSKDSTYSLSSTLTLSKADYEKHKVYACEVTHQGLSSPVTKSFNRGEC
notes: DVD-Ig, outer AB275, inner AB271, linker set 1; V1 wt hIgG1, V2 kappa; also called DVD1289H; DVD1289L
B7: DVD1600 (bispecific antibody, human IgG1, kappa)
heavy: not shown
light: EIVLTQSPDFQSVTPKEKVTITCRASQDIGSELHWYQQKPDQPPKLLIKYASHSTSGVPSRFSGSGSGTDFTLTINGLEAEDAGTYYCHQTDSLPYTFGPGTKVDIKRTVAAPSVFIFPPDIQMTQSPSSLSASVGDRVTITCRASGNIHNYLTWYQQTPGKAPKLLIYNAKTLADGVPSRFSGSGSGTDYTFTISSLQPEDIATYYCQHFWSIPYTFGQGTKLQITRTVAAPSVFIFPPSDEQLKSGTASVVCLLNNFYPREAKVQWKVDNALQSGNSQESVTEQDSKDSTYSLSSTLTLSKADYEKHKVYACEVTHQGLSSPVTKSFNRGEC
notes: V1 wt hIgG1, V2 kappa; also called DVD1600H; DVD1600L
B8: DVD1602 (bispecific antibody, human IgG1, kappa)
heavy: not shown
light: B7 light
notes: V1 wt hIgG1, V2 kappa; also called DVD1602H; DVD1602L
B9: DVD1287 (bispecific antibody, human IgG1, kappa)
heavy: not shown
light: EIVLTQSPDFQSVTPKEKVTITCRASQNIGSELHWYQQKPDQSPKLLIKYASHSISGVPSRFSGSGSGTDFTLTINGLEAEDAATYYCHQSDTLPHTFGQGTKVDIKRTVAAPDTQVTQSPSSLSASVGDRVTITCITSTDIDVDMNWYQQKPGKPPKLLISQGNTLRPGVPSRFSSSGSGTDFTFTISSLQPEDFATYYCLQSDNLPLTFGQGTKLEIKRTVAAPSVFIFPPSDEQLKSGTASVVCLLNNFYPREAKVQWKVDNALQSGNSQESVTEQDSKDSTYSLSSTLTLSKADYEKHKVYACEVTHQGLSSPVTKSFNRGEC
notes: DVD-Ig, outer AB275, inner AB270, linker set 1; V1 wt hIgG1, V2 kappa; also called DVD1287H; DVD1287L
B10: DVD1291 (bispecific antibody, human IgG1, kappa)
heavy: not shown
light: B9 light with D114E, Q116T
notes: DVD-Ig, outer AB275, inner AB272, linker set 1; V1 wt hIgG1, V2 kappa; also called DVD1291H; DVD1291L
B11: DVD1596 (bispecific antibody, human IgG1, kappa)
heavy: not shown
light: DIQMTQSPSSLSASVGDRVTITCRASSGIISYIDWFQQKPGKAPKRLIYATFDLASGVPSRFSGSGSGTDYTLTISSLQPEDFATYYCRQVGSYPETFGQGTKLEIKRTVAAPSVFIFPPDTVVTQSPAFLSVTPGEKVTITCITSTDIDVDMNWYQQKPDQPPKLLISQGNTLRPGVPSRFSSSGSGTDFTFTISSLEAEDAATYYCLQSDNLPLTFGQGTKLEIKRTVAAPSVFIFPPSDEQLKSGTASVVCLLNNFYPREAKVQWKVDNALQSGNSQESVTEQDSKDSTYSLSSTLTLSKADYEKHKVYACEVTHQGLSSPVTKSFNRGEC
notes: DVD-Ig, outer AB273, inner AB271, linker set 2; V1 wt hIgG1, V2 kappa; also called DVD1596H; DVD1596L
B12: DVD1604 (bispecific antibody, human IgG1, kappa)
heavy: not shown
light: EIVLTQSPDFQSVTPKEKVTITCRASQDIGSELHWYQQKPDQPPKLLIKYASHSTSGVPSRFSGSGSGTDFTLTINGLEAEDAGTYYCHQTDSLPYTFGPGTKVDIKRTVAAPSVFIFPPDTQVTQSPSSLSASVGDRVTITCITSTDIDVDMNWYQQKPGKPPKLLISQGNTLRPGVPSRFSSSGSGTDFTFTISSLQPEDFATYYCLQSDNLPLTFGQGTKLEIKRTVAAPSVFIFPPSDEQLKSGTASVVCLLNNFYPREAKVQWKVDNALQSGNSQESVTEQDSKDSTYSLSSTLTLSKADYEKHKVYACEVTHQGLSSPVTKSFNRGEC
notes: DVD-Ig, outer AB274, inner AB270, linker set 2; V1 wt hIgG1, V2 kappa; also called DVD1604H; DVD1604L

Target: T2, Recombinant Human IL-1β (human, UniProt P01584 117-269)
T2 construct: bought reagent; also called IL-1B
Assay: Biacore SPR; C-terminal VD
Procedure: (§1) The BIACORE assay (Biacore, Inc, Piscataway, N.J.) determines the affinity of antibodies or DVD-Ig with kinetic measurements of on-rate and off-rate constants. Binding of antibodies or DVD-Ig to a target antigen (for example, a purified recombinant target antigen) was determined by surface plasmon resonance-based measurements with a Biacore® 1000 or 3000 instrument (Biacore® AB, Uppsala, Sweden) using running HBS-EP (10 mM HEPES [pH 7.4], 150 mM NaCl, 3 mM EDTA, and 0.005% surfactant P20) at 25° C. All chemicals were obtained from Biacore® AB (Uppsala, Sweden) or otherwise from a different source as described in the text. For example, approximately 5000 RU of goat anti-mouse IgG, (Fcγ), fragment specific polyclonal antibody (Pierce Biotechnology Inc, Rockford, Ill.) diluted in 10 mM sodium acetate (pH 4.5) was directly immobilized across a CM5 research grade biosensor chip using a standard amine coupling kit according to manufacturer's instructions and procedures at 25 μg/ml. Unreacted moieties on the biosensor surface were blocked with ethanolamine. Modified carboxymethyl dextran surface in flowcell 2 and 4 was used as a reaction surface. Unmodified carboxymethyl dextran without goat anti-mouse IgG in flow cell 1 and 3 was used as the reference surface. For kinetic analysis, rate equations derived from the 1:1 Langmuir binding model were fitted simultaneously to association and dissociation phases of all eight injections (using global fit analysis) with the use of Biaevaluation 4.0.1 software. Purified antibodies or DVD-Ig were diluted in HEPES-buffered saline for capture across goat anti-mouse IgG specific reaction surfaces. Antibodies or DVD-Ig to be captured as a ligand (25 μg/ml) were injected over reaction matrices at a flow rate of 5 μl/min. The association and dissociation rate constants, kₒₙ (M⁻¹s⁻¹) and koff (s⁻¹) were determined under a continuous flow rate of 25 μl/min. Rate constants were derived by making kinetic binding measurements at different antigen concentrations ranging from 10−200 nM. The equilibrium dissociation constant (M) of the reaction between antibodies or DVD-Igs and the target antigen was then calculated from the kinetic rate constants by the following formula: KD=koff/kₒₙ. Binding was recorded as a function of time and kinetic rate constants are calculated.

Row | Kd | koff | kon | Binder
1 | 0.19 nM | 4.6e-05 s⁻¹ | 250000 M⁻¹ s⁻¹ | B1
2 | 0.0072 nM | 4.9e-06 s⁻¹ | 690000 M⁻¹ s⁻¹ | B2
3 | 0.24 nM | 0.0002 s⁻¹ | 820000 M⁻¹ s⁻¹ | B3
4 | 0.6 nM | 0.00043 s⁻¹ | 710000 M⁻¹ s⁻¹ | B4
5 | 1.2 nM | 0.00074 s⁻¹ | 630000 M⁻¹ s⁻¹ | B5
6 | 1.3 nM | 0.00048 s⁻¹ | 370000 M⁻¹ s⁻¹ | B6
7 | 0.55 nM | 9.4e-05 s⁻¹ | 170000 M⁻¹ s⁻¹ | B7
8 | 0.18 nM | 2.3e-05 s⁻¹ | 130000 M⁻¹ s⁻¹ | B8
9 | 1.2 nM | 0.00037 s⁻¹ | 310000 M⁻¹ s⁻¹ | B9
10 | 2.8 nM | 0.00058 s⁻¹ | 210000 M⁻¹ s⁻¹ | B10
11 | 0.51 nM | 0.00036 s⁻¹ | 700000 M⁻¹ s⁻¹ | B11
12 | 0.29 nM | 0.00037 s⁻¹ | 1.3e+06 M⁻¹ s⁻¹ | B12

Target: T1, Recombinant Human IL-17
Assay: Biacore SPR; N-terminal VD
Procedure: as §1

Row | Kd | koff | kon | Binder
13 | 0.0018 nM | 7e-06 s⁻¹ | 3.8e+06 M⁻¹ s⁻¹ | B1
14 | 0.0064 nM | 2e-05 s⁻¹ | 3.2e+06 M⁻¹ s⁻¹ | B2
15 | 0.39 nM | 5.8e-05 s⁻¹ | 150000 M⁻¹ s⁻¹ | B3
16 | 0.0056 nM | 2.3e-05 s⁻¹ | 4.2e+06 M⁻¹ s⁻¹ | B4
17 | 0.0051 nM | 1.8e-05 s⁻¹ | 3.5e+06 M⁻¹ s⁻¹ | B5
18 | 0.4 nM | 5.6e-05 s⁻¹ | 140000 M⁻¹ s⁻¹ | B6
19 | ≤ 0.0038 nM | < 1e-06 s⁻¹ | 2.8e+06 M⁻¹ s⁻¹ | B7
20 | 0.0051 nM | 1.4e-05 s⁻¹ | 2.7e+06 M⁻¹ s⁻¹ | B8
21 | 0.3 nM | 4.7e-05 s⁻¹ | 160000 M⁻¹ s⁻¹ | B9
22 | 0.048 nM | 6e-07 s⁻¹ | 12000 M⁻¹ s⁻¹ | B10
23 | 0.0033 nM | 1.3e-05 s⁻¹ | 4.1e+06 M⁻¹ s⁻¹ | B11
24 | 0.0026 nM | 9.7e-06 s⁻¹ | 3.8e+06 M⁻¹ s⁻¹ | B12
